Starred links: 1 amine or outer side, 2 acyl side, 3 side chain; linkers in the order of their positions; H or OH if unused. Non-standard residues stand in square brackets, D forms with d. Primed or numbered codes have the meaning given here. *: point of attachment. Trp(7-Me) = Cc1cccc2c(C[C@H](N)C(=O)O)c[nH]c12; C20 diacid = O=C(O)CCCCCCCCCCCCCCCCCCC(=O)*; d(γGlu) = O=C(O)[C@@H](CCC(=O)[*:2])N[*:1]; αMeW = C[C@](N)(Cc1c[nH]c2ccccc12)C(=O)O; γGlu = O=C(O)[C@H](CCC(=O)[*:2])N[*:1]; NMeH = CN[C@@H](Cc1c[nH]cn1)C(=O)O; Palmitoyl = CCCCCCCCCCCCCCCC(=O)*; 3Pal = N[C@@H](Cc1cccnc1)C(=O)O; Met(O) = CS(=O)CC[C@H](N)C(=O)O; Nle = CCCC[C@H](N)C(=O)O; PEG5′ = not defined here; AEEA = NCCOCCOCC(=O)O; Aib = CC(C)(N)C(=O)O; βAla = NCCC(=O)O; Sar = CNCC(=O)O
Biological target: human GRP receptor (human, UniProt P30550 1-384)
Assay: cell-based or functional assay

human GRP receptor, sequence (P30550 whole entry): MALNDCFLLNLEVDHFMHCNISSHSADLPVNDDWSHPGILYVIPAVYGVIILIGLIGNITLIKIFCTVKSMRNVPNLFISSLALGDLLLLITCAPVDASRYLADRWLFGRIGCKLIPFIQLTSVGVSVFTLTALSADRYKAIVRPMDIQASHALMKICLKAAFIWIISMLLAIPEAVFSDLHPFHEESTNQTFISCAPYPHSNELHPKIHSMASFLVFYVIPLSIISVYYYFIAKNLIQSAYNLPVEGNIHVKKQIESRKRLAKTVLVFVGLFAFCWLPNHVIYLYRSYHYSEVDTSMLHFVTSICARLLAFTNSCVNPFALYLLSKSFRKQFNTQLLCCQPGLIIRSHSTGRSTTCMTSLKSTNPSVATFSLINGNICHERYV

Row | Binder | hIP1 GRPR EC50
1 | {C20 diacid}-[γGlu][γGlu][AEEA][AEEA]GNH[αMeW]AV[βAla]HL[Nle]-NH2 (SMILES CCCC[C@H](NC(=O)[C@H](CC(C)C)NC(=O)[C@H](Cc1c[nH]cn1)NC(=O)CCNC(=O)[C@@H](NC(=O)[C@H](C)NC(=O)[C@](C)(Cc1c[nH]c2ccccc12)NC(=O)[C@H](Cc1c[nH]cn1)NC(=O)[C@H](CC(N)=O)NC(=O)CNC(=O)COCCOCCNC(=O)COCCOCCNC(=O)CC[C@H](NC(=O)CC[C@H](NC(=O)CCCCCCCCCCCCCCCCCCC(=O)O)C(=O)O)C(=O)O)C(C)C)C(N)=O) [Peptide 274] | 0.0049 µM
2 | {C20 diacid}-[γGlu][γGlu][PEG5′]GEH[Trp(7-Me)]AV[BABA]HL[Nle]-NH2 [Peptide 275] | 0.0123 µM
3 | Palmitoyl-[d(γGlu)][AEEA][AEEA]GNHWAV[dA][3Pal]L[Nle]-NH2 (SMILES CCCCCCCCCCCCCCCC(=O)N[C@H](CCC(=O)NCCOCCOCC(=O)NCCOCCOCC(=O)NCC(=O)N[C@@H](CC(N)=O)C(=O)N[C@@H](Cc1c[nH]cn1)C(=O)N[C@@H](Cc1c[nH]c2ccccc12)C(=O)N[C@@H](C)C(=O)N[C@H](C(=O)N[C@H](C)C(=O)N[C@@H](Cc1cccnc1)C(=O)N[C@@H](CC(C)C)C(=O)N[C@@H](CCCC)C(N)=O)C(C)C)C(=O)O) [Peptide 17] | 0.003 µM
4 | {C20 diacid}-[γGlu][AEEA][AEEA]GQHWAV[βAla]HL[Met(O)]-NH2 (SMILES CC(C)C[C@H](NC(=O)[C@H](Cc1c[nH]cn1)NC(=O)CCNC(=O)[C@@H](NC(=O)[C@H](C)NC(=O)[C@H](Cc1c[nH]c2ccccc12)NC(=O)[C@H](Cc1c[nH]cn1)NC(=O)[C@H](CCC(N)=O)NC(=O)CNC(=O)COCCOCCNC(=O)COCCOCCNC(=O)CC[C@H](NC(=O)CCCCCCCCCCCCCCCCCCC(=O)O)C(=O)O)C(C)C)C(=O)N[C@@H](CCS(C)=O)C(N)=O) [Peptide 276] | 0.0638 µM
5 | {C20 diacid}-[γGlu][γGlu][AEEA][AEEA]SEH[Trp(7-Me)]AV[BABA][NMeH]L[Nle]-NH2 [Peptide 277] | 0.0131 µM
6 | {C20 diacid}-[γGlu][γGlu][AEEA][AEEA]GDH[Trp(7-Me)]AV[BABA][NMeH]L[Nle]-NH2 [Peptide 278] | 0.0108 µM
7 | Palmitoyl-[d(γGlu)][AEEA][AEEA]GE[3Pal][Trp(7-Me)][Aib]V[dA][3Pal]L[Nle][Sar]-NH2 (SMILES CCCCCCCCCCCCCCCC(=O)N[C@H](CCC(=O)NCCOCCOCC(=O)NCCOCCOCC(=O)NCC(=O)N[C@@H](CCC(=O)O)C(=O)N[C@@H](Cc1cccnc1)C(=O)N[C@@H](Cc1c[nH]c2c(C)cccc12)C(=O)NC(C)(C)C(=O)N[C@H](C(=O)N[C@H](C)C(=O)N[C@@H](Cc1cccnc1)C(=O)N[C@@H](CC(C)C)C(=O)N[C@@H](CCCC)C(=O)N(C)CC(N)=O)C(C)C)C(=O)O) [Peptide 18] | ~1 µM
8 | Palmitoyl-[d(γGlu)][AEEA][AEEA]GNHWAV[Aib]HL[Nle]-NH2 (SMILES CCCCCCCCCCCCCCCC(=O)N[C@H](CCC(=O)NCCOCCOCC(=O)NCCOCCOCC(=O)NCC(=O)N[C@@H](CC(N)=O)C(=O)N[C@@H](Cc1c[nH]cn1)C(=O)N[C@@H](Cc1c[nH]c2ccccc12)C(=O)N[C@@H](C)C(=O)N[C@H](C(=O)NC(C)(C)C(=O)N[C@@H](Cc1c[nH]cn1)C(=O)N[C@@H](CC(C)C)C(=O)N[C@@H](CCCC)C(N)=O)C(C)C)C(=O)O) [Peptide 1] | 0.0069 µM
9 | Palmitoyl-[d(γGlu)][AEEA][AEEA]GEH[Trp(7-Me)][Aib]V[dA][3Pal]L[Nle][Sar]-NH2 (SMILES CCCCCCCCCCCCCCCC(=O)N[C@H](CCC(=O)NCCOCCOCC(=O)NCCOCCOCC(=O)NCC(=O)N[C@@H](CCC(=O)O)C(=O)N[C@@H](Cc1c[nH]cn1)C(=O)N[C@@H](Cc1c[nH]c2c(C)cccc12)C(=O)NC(C)(C)C(=O)N[C@H](C(=O)N[C@H](C)C(=O)N[C@@H](Cc1cccnc1)C(=O)N[C@@H](CC(C)C)C(=O)N[C@@H](CCCC)C(=O)N(C)CC(N)=O)C(C)C)C(=O)O) [Peptide 19] | > 1 µM
10 | Palmitoyl-[d(γGlu)][AEEA][AEEA]GNH[Trp(7-Me)][Aib]V[dA][3Pal]L[Nle][Sar]-NH2 (SMILES CCCCCCCCCCCCCCCC(=O)N[C@H](CCC(=O)NCCOCCOCC(=O)NCCOCCOCC(=O)NCC(=O)N[C@@H](CC(N)=O)C(=O)N[C@@H](Cc1c[nH]cn1)C(=O)N[C@@H](Cc1c[nH]c2c(C)cccc12)C(=O)NC(C)(C)C(=O)N[C@H](C(=O)N[C@H](C)C(=O)N[C@@H](Cc1cccnc1)C(=O)N[C@@H](CC(C)C)C(=O)N[C@@H](CCCC)C(=O)N(C)CC(N)=O)C(C)C)C(=O)O) [Peptide 20] | > 1 µM
11 | Palmitoyl-[d(γGlu)]GNHWAV[Aib]HL[Nle]-NH2 (SMILES CCCCCCCCCCCCCCCC(=O)N[C@H](CCC(=O)NCC(=O)N[C@@H](CC(N)=O)C(=O)N[C@@H](Cc1c[nH]cn1)C(=O)N[C@@H](Cc1c[nH]c2ccccc12)C(=O)N[C@@H](C)C(=O)N[C@H](C(=O)NC(C)(C)C(=O)N[C@@H](Cc1c[nH]cn1)C(=O)N[C@@H](CC(C)C)C(=O)N[C@@H](CCCC)C(N)=O)C(C)C)C(=O)O) [Peptide 21] | 0.12 µM
12 | Palmitoyl-[d(γGlu)][AEEA][AEEA]GNH[Trp(7-Me)]AV[Aib]HL[Nle]-NH2 (SMILES CCCCCCCCCCCCCCCC(=O)N[C@H](CCC(=O)NCCOCCOCC(=O)NCCOCCOCC(=O)NCC(=O)N[C@@H](CC(N)=O)C(=O)N[C@@H](Cc1c[nH]cn1)C(=O)N[C@@H](Cc1c[nH]c2c(C)cccc12)C(=O)N[C@@H](C)C(=O)N[C@H](C(=O)NC(C)(C)C(=O)N[C@@H](Cc1c[nH]cn1)C(=O)N[C@@H](CC(C)C)C(=O)N[C@@H](CCCC)C(N)=O)C(C)C)C(=O)O) [Peptide 22] | 0.0103 µM
13 | Palmitoyl-[d(γGlu)][AEEA][AEEA]GNH[Trp(7-Me)]AV[Aib][3Pal]L[Nle][Sar]-NH2 (SMILES CCCCCCCCCCCCCCCC(=O)N[C@H](CCC(=O)NCCOCCOCC(=O)NCCOCCOCC(=O)NCC(=O)N[C@@H](CC(N)=O)C(=O)N[C@@H](Cc1c[nH]cn1)C(=O)N[C@@H](Cc1c[nH]c2c(C)cccc12)C(=O)N[C@@H](C)C(=O)N[C@H](C(=O)NC(C)(C)C(=O)N[C@@H](Cc1cccnc1)C(=O)N[C@@H](CC(C)C)C(=O)N[C@@H](CCCC)C(=O)N(C)CC(N)=O)C(C)C)C(=O)O) [Peptide 23] | 1.09 µM

Reference: patent publication US20260176319A1 (KALLYOPE, published 2026)
